Data taken from patent publication US20250382344A1, “Soluble GLP1/GIP/NPY2 Receptor Triple Agonists” (Boehringer Ingelheim International GmH, priority 2024, published 2025).
*1 amine or outer side, *2 acyl side, *3 side chain or, on linkers, in order; H or OH if unused. Where no end group is shown, it is not given here. Side-chain parts run from the residue outwards. [ ]: non-standard residue; d: D form. The star is where a group is joined. γDab = gamma-linked diaminobutyric acid unit, O=C([C@H](CCN[*:1])N[*:3])[*:2]; C20 diacid = O=C(O)CCCCCCCCCCCCCCCCCCC(=O)*; C18 diacid = O=C(O)CCCCCCCCCCCCCCCCC(=O)*; γGlu = O=C(O)[C@H](CCC(=O)[*:2])N[*:1]; εLys = N[C@@H](CCCCN[*:1])C(=O)[*:2]; AEEA = NCCOCCOCC(=O)O; Aib = CC(C)(N)C(=O)O

T1: human neuropeptide Y2 receptor (human, UniProt P49146 1-381)
T1 sequence (looked up): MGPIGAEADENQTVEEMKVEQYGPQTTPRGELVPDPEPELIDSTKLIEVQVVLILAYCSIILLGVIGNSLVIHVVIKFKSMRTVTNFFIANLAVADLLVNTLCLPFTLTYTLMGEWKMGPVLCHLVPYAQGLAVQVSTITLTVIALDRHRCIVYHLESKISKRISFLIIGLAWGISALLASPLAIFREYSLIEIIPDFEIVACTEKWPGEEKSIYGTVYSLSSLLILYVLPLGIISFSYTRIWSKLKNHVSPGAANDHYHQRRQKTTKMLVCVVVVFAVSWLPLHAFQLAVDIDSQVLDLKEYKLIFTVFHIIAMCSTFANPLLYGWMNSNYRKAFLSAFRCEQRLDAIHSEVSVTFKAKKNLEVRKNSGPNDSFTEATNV

T2: human GIP receptor (human, UniProt P48546 22-466)
T2 sequence (looked up): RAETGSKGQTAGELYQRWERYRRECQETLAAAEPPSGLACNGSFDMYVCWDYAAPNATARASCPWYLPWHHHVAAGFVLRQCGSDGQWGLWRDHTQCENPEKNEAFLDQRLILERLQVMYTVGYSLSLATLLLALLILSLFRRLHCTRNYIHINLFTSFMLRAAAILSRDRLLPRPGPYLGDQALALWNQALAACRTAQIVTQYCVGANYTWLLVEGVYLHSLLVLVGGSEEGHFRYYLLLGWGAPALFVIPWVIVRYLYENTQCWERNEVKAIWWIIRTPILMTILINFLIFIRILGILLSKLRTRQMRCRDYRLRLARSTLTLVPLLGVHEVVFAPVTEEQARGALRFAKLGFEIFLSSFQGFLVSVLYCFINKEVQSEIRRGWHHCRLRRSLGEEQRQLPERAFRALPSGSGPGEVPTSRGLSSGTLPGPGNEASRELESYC


Tests used:
Assay in all cases: cell-based or functional assay
human GLP-1 receptor = human GLP-1 receptor (human, UniProt P43220 24-463)
[1] = target: T1, human neuropeptide Y2 receptor
human GIP receptor = target: T2, human GIP receptor

Binder | EC50, CreLuc reporter, 0.5% hP (human GLP-1 receptor) | EC50, CreLuc reporter, 100% hP (human GLP-1 receptor) | EC50, CreLuc reporter, 0.5% hP [1] | EC50, CreLuc reporter, 0.5% hP (human GIP receptor) | EC50, CreLuc reporter, 100% hP [1] | EC50, CreLuc reporter, 100% hP (human GIP receptor)
Y[Aib]EGTFTSDYSI[Aib]LEKQAE[Aib]AFVRHLINK([εLys-AEEA-γGlu-γGlu-γGlu-γGlu-γGlu-C20 diacid])[Aib]TRQRY-NH2 [Compound 161] | 2 nM | 5 nM |  |  |  | 
Y[Aib]EGTFTSDYSI[Aib]LEKQAQ[Aib]AFVRHLINK([γDab-γGlu-γGlu-γGlu-γGlu-γGlu-γGlu-C18 diacid])[Aib]TRQRY-NH2 [Compound 120] |  | 4 nM | 23.9 nM |  |  | 
YXEGTFTSDYSIXLEKQAQXAFVRHLINKXTRQRY (Aib at 2, 13, 20, 30; Lys29 epsilon-amino: C20DA-gGlu-gGlu-gGlu-gGlu-gGlu-AHX; C-terminal amide) [Compound 167] | 1 nM | 18.7 nM | 13.3 nM |  | 267 nM | 
YXEGTFTSDYSIELEKQAQXAFVRHLINKXTRQRY (Aib at 2, 20, 30; Lys29 epsilon-amino: C18DA-gGlu-gGlu-gGlu-gGlu-gGlu-gGlu-eLys; C-terminal amide) [Compound 160] | 7.1 nM | 27 nM | 15.5 nM |  | 28.5 nM | 
YXEGTFTSDYSIXLEKQAQXAFVRALINKXTRQRY (Aib at 2, 13, 20, 30; Lys29 epsilon-amino: C18DA-gGlu-gGlu-gGlu-gGlu-gGlu-gGlu-eLys; C-terminal amide) [Compound 128] | 0.7 nM | 4 nM |  | 0.2 nM |  | 5.7 nM
YXEGTFTSDYSIXLEKQAQXAFVRHLINKXTRQRY (Aib at 2, 13, 20, 30; Lys29 epsilon-amino: C18DA-gGlu-gGlu-gGlu-gGlu-gGlu-gGlu-eLys; C-terminal amide) [Compound 92] |  | 2 nM |  |  | 22.6 nM | 
YXEGTFTSDYSIXLEKQAEXAFVRHLINKXTRQRY (Aib at 2, 13, 20, 30; Lys29 epsilon-amino: C20DA-gGlu-gGlu-gGlu-gGlu-gGlu-gGlu-eLys; C-terminal amide) [Compound 104] | 2 nM | 12.9 nM | 17.5 nM |  | 129 nM | 

Continued, values first:

EC50, CreLuc reporter, 0.5% hP (human GLP-1 receptor) | EC50, CreLuc reporter, 100% hP (human GLP-1 receptor) | EC50, CreLuc reporter, 0.5% hP [1] | EC50, CreLuc reporter, 0.5% hP (human GIP receptor) | EC50, CreLuc reporter, 100% hP [1] | EC50, CreLuc reporter, 100% hP (human GIP receptor) | Binder
0.2 nM |  |  | 0.5 nM |  |  | Y[Aib]EGTFTSDYSI[Aib]LEKEAQ[Aib]EFVRHLINK([γGlu-γGlu-γGlu-γGlu-C18 diacid])[Aib]TRQRY-NH2 (N-terminus assumed; SMILES CC[C@H](C)[C@H](NC(=O)[C@H](CC(C)C)NC(=O)[C@H](Cc1c[nH]cn1)NC(=O)[C@H](CCCNC(=N)N)NC(=O)[C@@H](NC(=O)[C@H](Cc1ccccc1)NC(=O)[C@H](CCC(=O)O)NC(=O)C(C)(C)NC(=O)[C@H](CCC(N)=O)NC(=O)[C@H](C)NC(=O)[C@H](CCC(=O)O)NC(=O)[C@H](CCCCN)NC(=O)[C@H](CCC(=O)O)NC(=O)[C@H](CC(C)C)NC(=O)C(C)(C)NC(=O)[C@@H](NC(=O)[C@H](CO)NC(=O)[C@H](Cc1ccc(O)cc1)NC(=O)[C@H](CC(=O)O)NC(=O)[C@H](CO)NC(=O)[C@@H](NC(=O)[C@H](Cc1ccccc1)NC(=O)[C@@H](NC(=O)CNC(=O)[C@H](CCC(=O)O)NC(=O)C(C)(C)NC(=O)[C@@H](N)Cc1ccc(O)cc1)[C@@H](C)O)[C@@H](C)O)[C@@H](C)CC)C(C)C)C(=O)N[C@@H](CC(N)=O)C(=O)N[C@@H](CCCCNC(=O)CC[C@H](NC(=O)CC[C@H](NC(=O)CC[C@H](NC(=O)CC[C@H](NC(=O)CCCCCCCCCCCCCCCCC(=O)O)C(=O)O)C(=O)O)C(=O)O)C(=O)O)C(=O)NC(C)(C)C(=O)N[C@H](C(=O)N[C@@H](CCCNC(=N)N)C(=O)N[C@@H](CCC(N)=O)C(=O)N[C@@H](CCCNC(=N)N)C(=O)N[C@@H](Cc1ccc(O)cc1)C(N)=O)[C@@H](C)O) [Compound 100]
2 nM |  |  |  |  | 3.4 nM | YXEGTFTSDYSIXLEKQAQXAFVRHLINKXTRQRY (Aib at 2, 13, 20, 30; NMeY at 35; Lys29 epsilon-amino: C18DA-gGlu-gGlu-gGlu-gGlu-gGlu-gGlu-eLys; C-terminal amide) [Compound 116]
0.6 nM |  |  | 0.4 nM |  |  | YXEGTFTSDYSIXLEKEAQXAFVRHLINKXTRQRY (Aib at 2, 13, 20, 30; Lys29 epsilon-amino: C18DA-gGlu-gGlu-gGlu-gGlu-gGlu-gGlu-eLys; C-terminal amide) [Compound 164]
4.7 nM | 6.1 nM | 53.6 nM |  | 77.4 nM |  | YXEGTFTSDYSIXLEKQAAXAFVRHLINKXTRQRY (Aib at 2, 13, 20, 30; Lys29 epsilon-amino: C18DA-gGlu-gGlu-gGlu-gGlu-gGlu-gGlu-eLys; C-terminal amide) [Compound 111]
0.4 nM | 0.6 nM | 25.9 nM |  | 131 nM |  | YXEGTFTSDYSIXLEKQAEXAFVRHLINKXTRQRY (Aib at 2, 20, 30; aMeL at 13; Lys29 epsilon-amino: C20DA-gGlu-gGlu-gGlu-gGlu-gGlu-gGlu-eLys; C-terminal amide) [Compound 103]
0.9 nM | 1.7 nM | 23 nM | 0.3 nM | 125 nM | 1.7 nM | YXEGTFTSDYSIXLEKQAQXAFVRHLINKXTRQXY (Aib at 2, 13, 20, 30; dOR at 34; Lys29 epsilon-amino: C18DA-gGlu-gGlu-gGlu-gGlu-gGlu; C-terminal amide) [Compound 96]
